Measurements: article PMC5949987

Key:
β2AR–SmBit = β2AR–SmBit (UniProt P07550); test: split reporter (BiFC, NanoBiT); NanoLuc complementation in intact HEK 293 cells cotransfected with receptor–SmBit and LgBit–mG; total luminescence with furimazine against agonist concentration
β2AR–Rluc8 = β2AR–Rluc8 (UniProt P07550); test: FRET or BRET; intact HEK 293 cells with agonist; receptor–Rluc8 or receptor–Nluc as donor, NES–venus–mG as acceptor; net BRET; DPBS, 96-well plates
cerulean–β2AR = cerulean–β2AR (UniProt P07550); test: calibrated confocal fluorescence intensities at the plasma membrane; HEK 293 cells expressing cerulean-β2AR and venus–mGs, 10 μM isoproterenol, steady state; venus and cerulean intensities calibrated with the standard protein cerulean–TM–venus; n = 17

LgBit–mGs
fold increase in luminescence intensity on agonist stimulation (β2AR–SmBit): < 20 fold

NES–venus–mGs (domain or fragment)
time to dissociate after addition of the inverse agonist ICI 118,551 (β2AR–Rluc8): > 15 min

venus–mGs (domain or fragment)
stoichiometry N (venus–mGs per cerulean–β2AR) (cerulean–β2AR): 1.17
